According to US20240002535A1 (Merck Sharp & Dohme, published 2024):

Columns and labels:
[1] = target: T1, human arginase 1 (hArg1), trimeric (human, UniProt P05089 1-322); test: isothermal titration calorimetry: hArg1 trimer (100 µM, syringe) titrated into mAb4 mouse/human chimera (10 µM, cell) at 25 °C
T1 construct: Natural homotrimer; It carries two Mn ions in each active site; also called Human Arg1 trimer; trimeric hArg1
T1 sequence: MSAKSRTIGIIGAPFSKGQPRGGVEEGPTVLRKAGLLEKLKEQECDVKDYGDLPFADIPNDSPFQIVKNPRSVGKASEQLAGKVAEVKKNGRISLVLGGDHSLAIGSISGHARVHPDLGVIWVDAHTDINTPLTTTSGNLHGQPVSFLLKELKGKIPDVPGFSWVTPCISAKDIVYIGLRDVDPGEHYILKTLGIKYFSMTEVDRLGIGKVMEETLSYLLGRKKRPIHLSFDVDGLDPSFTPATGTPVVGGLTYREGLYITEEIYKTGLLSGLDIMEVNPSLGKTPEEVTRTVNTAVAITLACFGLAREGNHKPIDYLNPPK
Experimental: (§1) Isothermal titration calorimetry (ITC) was conducted using a MicroCal PEAQ-ITC Automated (Malvern Inc, Westborough, MA) to determine the stoichiometry and thermodynamics properties of the hArg1:mAb interaction. […] Arginase (100 μM) in the ITC syringe was titrated into the antibody (10 μM) in the ITC cell at 25° C. Reference power was set to 10 μcal/sec with initial delay of 60 seconds and stirring speed of 750 rpm. Injection volume was 0.4 μL for the first injection and 4 μL for subsequent injections. Injection duration was 0.8 seconds for the first injection and 6 seconds for subsequent injections with 150 sec spacing. Baseline was adjusted using buffer-buffer titration. Data analysis was done using MicroCal PEAQ-ITC Analysis Software.

[2] = target: T1, human arginase 1 (hArg1), trimeric; test: ITC, hArg1 trimer (100 uM, syringe) titrated into the antibody (10 uM, cell) at 25 C
Experimental: as §1

B1: mAb4 (mouse/human chimera) (antibody, V domains shown)
VH: EVQLQQSGPVLVKPGASVKMSCKASEYTFTDYYMNWVKQSHGRSLEWIGVISPYNGGTTYNQKFKGKATLTVDKSSSTAYMELNSLTSEDSAVYYCVYDLYYFDYWGQGTTLTVSS
VL: NIVLTQSPATLSVTPGDSVSLSCRASQRISNDLHWYQQKSHESPRLLIKYASQSISGIPSRFSGSGSGTDFTLSINSVETEDFGMYFCQQSNSWPRTFGGGTKLEIK
- -TΔS [1]: 3 kcal/mol
- ΔG [1]: -10.7 kcal/mol
- ΔH [1]: -13.7 kcal/mol
- stoichiometry n (ITC) [2]: 0.637
